The text below walks through data of patent US20180298070A1, “PEPTIDE COMPOUND” (Takeda Pharmaceutical Company Limited, published 2018).

Positions count from the first letter of the chain named. Starred links: 1 amine or outer side, 2 acyl side, 3 side chain; linkers in the order of their positions; H or OH if unused. Non-standard residues stand in square brackets, D forms with d. Groups on a side chain read outwards from the residue. Primed or numbered codes have the meaning given here. No end group written: not given here. *: point of attachment. C20 diacid = O=C(O)CCCCCCCCCCCCCCCCCCC(=O)*; γGlu = O=C(O)[C@H](CCC(=O)[*:2])N[*:1]; NMeY = CN[C@@H](Cc1ccc(O)cc1)C(=O)O; Iva = CC[C@](C)(N)C(=O)O; PEG3′ = not defined here; Aib = CC(C)(N)C(=O)O Bounds are passed on as bounds.

Assay [1] deals with human GLP-1R (human, UniProt P43220). As to the kind of experiment: cell-based or functional assay.
Assay [2] concerns the target T1, human GIPR (human), P48546.
T1 chain: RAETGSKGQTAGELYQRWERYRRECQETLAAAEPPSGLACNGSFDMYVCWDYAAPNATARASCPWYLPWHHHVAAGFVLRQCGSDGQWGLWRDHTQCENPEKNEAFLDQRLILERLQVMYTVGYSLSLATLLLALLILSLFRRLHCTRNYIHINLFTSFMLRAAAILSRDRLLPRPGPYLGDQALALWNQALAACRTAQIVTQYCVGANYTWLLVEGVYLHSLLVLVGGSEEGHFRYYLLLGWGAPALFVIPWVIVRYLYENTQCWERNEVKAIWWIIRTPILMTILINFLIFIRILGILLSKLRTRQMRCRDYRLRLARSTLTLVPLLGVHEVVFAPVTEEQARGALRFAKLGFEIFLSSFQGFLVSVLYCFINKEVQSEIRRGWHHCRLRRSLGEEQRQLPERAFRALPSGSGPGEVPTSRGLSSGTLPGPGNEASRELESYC
Briefly: [125I]GIP competition, human GIPR VLP.

Assay [3] concerns the target T1, human GIPR (human), P48546.
Assay [4] addresses T2, human GLP-1R (human), P43220.
T2 chain: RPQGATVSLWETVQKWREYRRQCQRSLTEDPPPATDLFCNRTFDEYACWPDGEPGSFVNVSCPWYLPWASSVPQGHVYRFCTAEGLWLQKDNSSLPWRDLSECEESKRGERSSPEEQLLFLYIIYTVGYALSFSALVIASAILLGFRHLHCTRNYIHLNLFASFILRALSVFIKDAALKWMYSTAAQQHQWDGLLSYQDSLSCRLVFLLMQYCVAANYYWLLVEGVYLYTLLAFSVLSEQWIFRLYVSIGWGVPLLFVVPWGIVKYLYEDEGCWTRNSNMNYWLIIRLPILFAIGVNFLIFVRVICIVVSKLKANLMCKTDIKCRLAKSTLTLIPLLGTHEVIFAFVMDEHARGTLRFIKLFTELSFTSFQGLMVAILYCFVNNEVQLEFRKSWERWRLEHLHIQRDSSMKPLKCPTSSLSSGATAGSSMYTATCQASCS

For assay [5], the target named is T3, human GIPR (human, UniProt P48546).
T3 sequence: T1 chain
As to the kind of experiment: [125I]GIP displacement, hGIPR VLP. How it is done: For the measurement of the binding activity to GIPR, [¹²⁵I]GIP (PerkinElmer, Inc.) in a final concentration of 100 pM and a test compound in a specified concentration were mixed to GIPR_VLP in an assay buffer (50 mM HEPES (pH 7.4, WAKO 342-01375), 5 mM EGTA (WAKO 346-01312), 5 mM MgCl₂ (WAKO 136-03995), 0.1% BSA (Merckmillipore 81-066-04) and 0.005% Tween 20 (BioRad 170-6531)) and reacted at room temperature for 2 hours. VLP to which [¹²⁵I ]GIP was bound was trapped in a GF/C glass fiber filter 96-well plate (PerkinElmer 6005274) using a cell harvester and washed with an assay buffer. The GF/C glass fiber filter 96-well plate in which VLP was trapped was dried at 42° C. overnight. Thereafter, MicroScint-O (PerkinElmer 6013611) was added to the GF/C glass fiber filter 96-well plate sealed using a backseal and the plate was sealed using a topseal. The radioactivity of each well was eventually measured using Topcount (PerkinElmer) and the binding activity of the test compound to GIPR was calculated when the [¹²⁵I]GIP binding activity in the presence of GIP in a final concentration of […] was 100% and the [¹²⁵I]GIP binding activity of the wells to which DMSO was added was 0%.

Assay [6] deals with human GLP-1R (human, UniProt P43220). Briefly: cell-based or functional assay. This is another data set of the same source.

For the molecule YXEGTXISDYSIALDRXAQXNFVNWLLAQRPSSGAPPPSR (N-methyl on Tyr 1 (Me-Tyr); Aib at 2, 17, 20; Iva at 6; C-terminal amide (NH2)) [Compound 104], the “Agonist activity (EC50, M)” value in assay [1] is above 1e-06 M.

B1: Compound 113 (peptide)
peptide: YXEGTXISDYSIXLDRXAQXNFVNWXLAQRPSSGAPPPSR
modifications: N-methyl on Tyr 1 (Me-Tyr); Aib at 2, 13, 17, 20; Iva at 6, 26; C-terminal amide (NH2)
Consider B1, for which the “Agonist activity (EC50, M)” value in assay [1] was above 1e-06 M.
A word on the IC50: it is the concentration that inhibits the measured activity by half. A high value points to weaker potency. Turning to Y[Aib]EGTFISDYSK([PEG(2)-C20 diacid])ALDRIAQQNFVNW[Iva]LAQR (ends and bridges not checked) [Compound 387], the IC50 in assay [2] worked out at 8.2 nM. Also, the Agonist activity (EC50, M) in assay [3] is 5.9e-11 M; in assay [4], above 1e-06 M.
As to Y[Aib]EGTFISDYSIAK([PEG(2)-C20 diacid])DRIAQQNFVNW[Iva]LAQR (ends and bridges not checked) [Compound 389], the IC50 in assay [2] was 19 nM. For the same molecule, the Agonist activity (EC50, M) in assay [3] is 8e-11 M; in assay [4] it was above 1e-06 M.
In assay [2], Y[Aib]EGTFISDYSIALDRK([PEG(2)-C20 diacid])AQQNFVNW[Iva]LAQR (ends and bridges not checked) [Compound 391] gave an IC50 of 34 nM. Moreover, the figures for the Agonist activity (EC50, M) in assay [3] and in assay [4] were 1.1e-10 M and above 1e-06 M, respectively.
YAEGTVVSLYSIALDKQHQQEFVKWLLKGGPSSGAPPPSK [Compound 24]: the IC50 in assay [5] was 370 nM.
The same measure, in the same setting: as for YAEGTVVSLYSIALDKIHQQEFVKWLLKGGPSSGAPPPSK [Compound 25], the figure is 520 nM.
For Y[Aib]EGTFISDYSIALDRK([PEG(2)-C20 diacid])AQQNFVNW[Iva]LAQRPSSGAPPPS (not fully specified (C-terminus); ends and bridges not checked) [Compound 408], the IC50 in assay [2] was 84 nM. Moreover, the Agonist activity (EC50, M) was 4.8e-10 M in assay [3] and above 1e-06 M in assay [4].

B2: Compound 59 (peptide)
peptide: [NMeY][Aib]EGTFISDYSIALDRIAQQDFVNWLLAQRPSSGAPPPSR-NH2
modifications: N-terminus assumed
SMILES: CC[C@H](C)[C@H](NC(=O)[C@H](CCCNC(=N)N)NC(=O)[C@H](CC(=O)O)NC(=O)[C@H](CC(C)C)NC(=O)[C@H](C)NC(=O)[C@@H](NC(=O)[C@H](CO)NC(=O)[C@H](Cc1ccc(O)cc1)NC(=O)[C@H](CC(=O)O)NC(=O)[C@H](CO)NC(=O)[C@@H](NC(=O)[C@H](Cc1ccccc1)NC(=O)[C@@H](NC(=O)CNC(=O)[C@H](CCC(=O)O)NC(=O)C(C)(C)NC(=O)[C@H](Cc1ccc(O)cc1)NC)[C@@H](C)O)[C@@H](C)CC)[C@@H](C)CC)C(=O)N[C@@H](C)C(=O)N[C@@H](CCC(N)=O)C(=O)N[C@@H](CCC(N)=O)C(=O)N[C@@H](CC(=O)O)C(=O)N[C@@H](Cc1ccccc1)C(=O)N[C@H](C(=O)N[C@@H](CC(N)=O)C(=O)N[C@@H](Cc1c[nH]c2ccccc12)C(=O)N[C@@H](CC(C)C)C(=O)N[C@@H](CC(C)C)C(=O)N[C@@H](C)C(=O)N[C@@H](CCC(N)=O)C(=O)N[C@@H](CCCNC(=N)N)C(=O)N1CCC[C@H]1C(=O)N[C@@H](CO)C(=O)N[C@@H](CO)C(=O)NCC(=O)N[C@@H](C)C(=O)N1CCC[C@H]1C(=O)N1CCC[C@H]1C(=O)N1CCC[C@H]1C(=O)N[C@@H](CO)C(=O)N[C@@H](CCCNC(=N)N)C(N)=O)C(C)C
As for B2, in assay [1], the “Agonist activity (EC50, M)” value was above 1e-06 M.

B3: Compound 117 (peptide)
peptide: [NMeY][Aib]EGTFISDYSIALDR[Aib]HQ[Aib]NFVNW[Iva]LAQRPSSGAPPPSR-NH2
modifications: N-terminus assumed
SMILES: CC[C@H](C)[C@H](NC(=O)[C@H](CO)NC(=O)[C@H](Cc1ccc(O)cc1)NC(=O)[C@H](CC(=O)O)NC(=O)[C@H](CO)NC(=O)[C@@H](NC(=O)[C@H](Cc1ccccc1)NC(=O)[C@@H](NC(=O)CNC(=O)[C@H](CCC(=O)O)NC(=O)C(C)(C)NC(=O)[C@H](Cc1ccc(O)cc1)NC)[C@@H](C)O)[C@@H](C)CC)C(=O)N[C@@H](C)C(=O)N[C@@H](CC(C)C)C(=O)N[C@@H](CC(=O)O)C(=O)N[C@@H](CCCNC(=N)N)C(=O)NC(C)(C)C(=O)N[C@@H](Cc1c[nH]cn1)C(=O)N[C@@H](CCC(N)=O)C(=O)NC(C)(C)C(=O)N[C@@H](CC(N)=O)C(=O)N[C@@H](Cc1ccccc1)C(=O)N[C@H](C(=O)N[C@@H](CC(N)=O)C(=O)N[C@@H](Cc1c[nH]c2ccccc12)C(=O)N[C@@](C)(CC)C(=O)N[C@@H](CC(C)C)C(=O)N[C@@H](C)C(=O)N[C@@H](CCC(N)=O)C(=O)N[C@@H](CCCNC(=N)N)C(=O)N1CCC[C@H]1C(=O)N[C@@H](CO)C(=O)N[C@@H](CO)C(=O)NCC(=O)N[C@@H](C)C(=O)N1CCC[C@H]1C(=O)N1CCC[C@H]1C(=O)N1CCC[C@H]1C(=O)N[C@@H](CO)C(=O)N[C@@H](CCCNC(=N)N)C(N)=O)C(C)C
With B3, the “Agonist activity (EC50, M)” value in assay [1] was above 1e-06 M.

B4: Compound 341 (peptide)
peptide: YXEGTXISDYSIXXDRXAQXNFVNWXLAQRPSSGAPPPS
modifications: MeTyr at 1; Aib at 2, 13, 17, 20; Iva at 6, 26; Lys(Eda-GGGGG-) at 14; C-terminal amide (-NH2)
On to B4, for which the “Agonist activity (EC50, M)” value in assay [6] is above 1e-06 M.

B5: Compound 349 (peptide)
peptide: B4 peptide with X14L
modifications: MeTyr at 1; Aib at 2, 13, 20; Iva at 6, 26; Lys(Oda-GGGGG-) at 17; C-terminal amide (-NH2)
B5: in assay [6], the “Agonist activity (EC50, M)” value was above 1e-06 M.

B6: Compound 342 (peptide)
peptide: B4 peptide
modifications: Me-Tyr at 1; Aib at 2, 13, 17, 20; Iva at 6, 26; Lys(Eda-GGGGGG-) at 14; C-terminal amide (-NH2) (as printed for SEQ ID NO: 355 in the 1st table)
As for B6, in assay [6], the “Agonist activity (EC50, M)” value is above 1e-06 M.
In turn, Y[Aib]EGTFISDYSK([PEG(2)-C20 diacid])ALDRIAQQNFVNW[Iva]LAQRPSSGAPPPS (ends and bridges not checked) [Compound 381] displayed a 50% inhibitory concentration (IC50) in assay [2] of 8.7 nM. Moreover, the values for the Agonist activity (EC50, M) in assay [3] and in assay [4] were 4.4e-11 M and above 1e-06 M, respectively.
Y[Aib]EGTVVSLYSK([PEG3′-PEG3′-γGlu-C20 diacid])[Aib]LDRQAQ[Aib]EFVK(Ac)WLLRGGPSSGAPPPS (ends and bridges not checked) [Compound 326]: the 50% inhibitory concentration (IC50) in assay [2] stood at 15 nM.
Y[Aib]EGTFISDYSIAK([PEG(2)-C20 diacid])DRIAQQNFVNW[Iva]LAQRPSSGAPPPS (ends and bridges not checked) [Compound 383] yielded an IC50 in assay [2] of 10 nM. The Agonist activity (EC50, M) is 4.3e-11 M in assay [3] and above 1e-06 M in assay [4].
The matching figures for Y[Aib]EGTFISDYSIALDRK([PEG(2)-C20 diacid])AQQNFVNW[Iva]LAQRPSSGAPPPS (ends and bridges not checked) [Compound 385]: 15 nM, 8.3e-11 M and above 1e-06 M.
The molecule Y[Aib]EGTVVSLYSK([PEG3′-PEG3′-C20 diacid])[Aib]LDRQAQ[Aib]EFVK(Ac)WLLRGGPSSGAPPPS (ends and bridges not checked) [Compound 324] returned an IC50 in assay [2] of 7.8 nM.
Y[Aib]EGTFISDYSIALDRK([PEG(2)-C20 diacid])AQQNFVNW[Iva]LAQRPSSGAPPPS (not fully specified (C-terminus); ends and bridges not checked) [Compound 404] gave an IC50 in assay [2] of 24 nM. The Agonist activity (EC50, M) in assay [3] is 1.1e-10 M; in assay [4], above 1e-06 M.
